Experimental data as given in FireProtDB (doi:10.1021/bi00135a019).

Conditions: Aspergillus oryzae (strain ATCC 42149 / RIB 40), DSC, reversible: yes, whole UniProt chain shown; for Tm / heat capacity change of unfolding / unfolding enthalpy (calorimetric) / unfolding enthalpy (van 't Hoff): Thermal; for denaturant m value / denaturant midpoint (higher = more stable) / unfolding free energy: Urea, MOPS 30 mM
[1] = pH 7, PIPES 30 mM, MgCl2 0.01 M
[2] = pH 7, PIPES 30 mM, MgCl2 0.02 M
[3] = pH 7, PIPES 30 mM, MgCl2 0.03 M
[4] = pH 7, PIPES 30 mM, MgCl2 0.06 M
[5] = pH 7, PIPES 30 mM, MgCl2 0.10 M
[6] = pH 7, PIPES 30 mM, MgCl2 0.20 M

B1: Guanyl-specific ribonuclease T1 wild type, P00651 (protein)
chain: MMYSKLLTLTTLLLPTALALPSLVERACDYTCGSNCYSSSDVSTAQAAGYQLHEDGETVGSNSYPHKYNNYEGFDFSVSSPYYEWPILSSGDVYSGGSPGADRVVFNENNQLAGVITHTGASGNNFVECT
Q: What does the source list for B1?
A: Tm (pH 2.2, glycine 30 mM): 45.4 °C; heat capacity change of unfolding (pH 2.2, glycine 30 mM): 1.53 kcal/mol/K; unfolding enthalpy (calorimetric) (pH 2.2, glycine 30 mM): 89.6 kcal/mol; unfolding enthalpy (van 't Hoff) (pH 2.2, glycine 30 mM): 114 kcal/mol; Tm (pH 2.8, glycine 30 mM): 49 °C; heat capacity change of unfolding (pH 2.8, glycine 30 mM): 1.64 kcal/mol/K; unfolding enthalpy (calorimetric) (pH 2.8, glycine 30 mM): 95.3 kcal/mol; unfolding enthalpy (van 't Hoff) (pH 2.8, glycine 30 mM): 109 kcal/mol; Tm (pH 4, acetate 30 mM): 56.7 °C; heat capacity change of unfolding (pH 4, acetate 30 mM): 2.47 kcal/mol/K; unfolding enthalpy (calorimetric) (pH 4, acetate 30 mM): 102 kcal/mol; unfolding enthalpy (van 't Hoff) (pH 4, acetate 30 mM): 114 kcal/mol; Tm (pH 5, acetate 30 mM): 56.5 °C; heat capacity change of unfolding (pH 5, acetate 30 mM): 1.74 kcal/mol/K; unfolding enthalpy (calorimetric) (pH 5, acetate 30 mM): 106 kcal/mol; unfolding enthalpy (van 't Hoff) (pH 5, acetate 30 mM): 117 kcal/mol; denaturant m value (pH 7, 14.9 °C): 1.26 kcal/mol/M; denaturant midpoint (higher = more stable) (pH 7, 14.9 °C): 5.65 M; unfolding free energy (pH 7, 14.9 °C): 6.84 kcal/mol; denaturant m value (pH 7, 21.1 °C): 1.1 kcal/mol/M; denaturant midpoint (higher = more stable) (pH 7, 21.1 °C): 4.98 M; unfolding free energy (pH 7, 21.1 °C): 6.03 kcal/mol; denaturant m value (pH 7, 23.05 °C): 1.2 kcal/mol/M; denaturant midpoint (higher = more stable) (pH 7, 23.05 °C): 4.86 M; unfolding free energy (pH 7, 23.05 °C): 5.89 kcal/mol; denaturant m value (pH 7, 25 °C): 1.2 kcal/mol/M; denaturant midpoint (higher = more stable) (pH 7, 25 °C): 4.58 M; unfolding free energy (pH 7, 25 °C): 5.55 kcal/mol; denaturant m value (pH 7, 27 °C): 1.2 kcal/mol/M; denaturant midpoint (higher = more stable) (pH 7, 27 °C): 4.14 M; unfolding free energy (pH 7, 27 °C): 5.01 kcal/mol; denaturant m value (pH 7, 29 °C): 1.27 kcal/mol/M; denaturant midpoint (higher = more stable) (pH 7, 29 °C): 3.93 M; unfolding free energy (pH 7, 29 °C): 4.76 kcal/mol; denaturant m value (pH 7, 34.75 °C): 1.22 kcal/mol/M; denaturant midpoint (higher = more stable) (pH 7, 34.75 °C): 2.92 M; unfolding free energy (pH 7, 34.75 °C): 3.54 kcal/mol; denaturant m value (pH 7, 40.1 °C): 1.28 kcal/mol/M; denaturant midpoint (higher = more stable) (pH 7, 40.1 °C): 2.13 M; unfolding free energy (pH 7, 40.1 °C): 2.58 kcal/mol; Tm (pH 7, PIPES 30 mM, MgCl2 0 M): 48.9 °C; heat capacity change of unfolding (pH 7, PIPES 30 mM, MgCl2 0 M): 1.35 kcal/mol/K; unfolding enthalpy (calorimetric) (pH 7, PIPES 30 mM, MgCl2 0 M): 95.5 kcal/mol; unfolding enthalpy (van 't Hoff) (pH 7, PIPES 30 mM, MgCl2 0 M): 118 kcal/mol; Tm [1]: 52.4 °C; heat capacity change of unfolding [1]: 1.22 kcal/mol/K; unfolding enthalpy (calorimetric) [1]: 98.2 kcal/mol; unfolding enthalpy (van 't Hoff) [1]: 117 kcal/mol; Tm [2]: 53.5 °C; heat capacity change of unfolding [2]: 0.86 kcal/mol/K; unfolding enthalpy (calorimetric) [2]: 98.9 kcal/mol; unfolding enthalpy (van 't Hoff) [2]: 117 kcal/mol; Tm [3]: 54 °C; heat capacity change of unfolding [3]: 0.94 kcal/mol/K; unfolding enthalpy (calorimetric) [3]: 99.1 kcal/mol; unfolding enthalpy (van 't Hoff) [3]: 119 kcal/mol; Tm [4]: 55.4 °C; heat capacity change of unfolding [4]: 1.02 kcal/mol/K; unfolding enthalpy (calorimetric) [4]: 104 kcal/mol; unfolding enthalpy (van 't Hoff) [4]: 120 kcal/mol; Tm [5]: 56.6 °C; heat capacity change of unfolding [5]: 1.11 kcal/mol/K; unfolding enthalpy (calorimetric) [5]: 104 kcal/mol; unfolding enthalpy (van 't Hoff) [5]: 121 kcal/mol; Tm [6]: 58.1 °C; heat capacity change of unfolding [6]: 0.71 kcal/mol/K; unfolding enthalpy (calorimetric) [6]: 104 kcal/mol
